Laboratory results published in patent US7229806B2, “Microbial conversion of glucose to para-hydroxystyrene” (E. I. du Pont de Nemours and Company, priority 2002, dated 2007).

Legend:
[1] = target: TAL activity of the PAL/TAL enzyme (Rhodotorula toruloides, UniProt P11544); experiment: Inhibition of TAL activity by pHCA; format: biochemical, R. glutinis
Excerpt: (§1) An E. coli strain containing the wild type pal/tal gene (PAL/TAL ratio of 2.0) uses both PAL and TAL routes to convert glucose to both CA and pHCA. […] Based on the kinetic information it is expected that the presence of phenylalanine would interfere with the TAL activity of the enzyme.

E. coli NST74 = experiment: Toxicity of pHCA and pHS to the cells; format: cell-based; conditions: previous studies
[2] = Kinetic studies with the PAL/TAL enzyme (Vmax, PAL/TAL ratio); format: biochemical
Excerpt: as §1

[3] = TAL/PAL activity ratio of wild type and mutant PAL/TAL enzymes, separate TAL and PAL measurements in whole cells; format: biochemical; conditions: ratio of TAL catalytic activity to PAL catalytic activity
Procedure: In order to select for those mutants having genes encoding proteins with enhanced TAL activity, a selection system based on the reversibility of the tyrosine to PHCA reaction was developed. It will be appreciated that the TAL activity responsible for the conversion of tyrosine to pHCA is in a state of equilibrium with the opposite reaction. Mutant genes were cloned by standard methods into E. coli tyrosine auxotrophs, unable to grow in the absence of tyrosine. Transformants were plated on tyrosine minus medium in the presence of suitable concentrations of pHCA. Those colonies which grew under these conditions were picked and analyzed for the presence of the mutant gene. In this fashion, a gene was isolated that expressed an enzyme having a catalytic efficiency of about 12.6×10^3 M^−1sec^−1 and a ratio of TAL catalytic activity to PAL catalytic activity of 1.7 compared to 0.5 for the wild type.
A simple method is disclosed that relies on separate measurements of the TAL and PAL activities in whole cells. The ratio of TAL to PAL activity then may be calculated and quickly compared to wild type activity, to monitor changes in the bio-catalyst activity.
Using the above approach Applicants have identified a variety of mutant PAL enzymes that have increased TAL activity, compared to the wild type gene. These mutants were identified using the methods of mutagenesis and screening described above. The mutants, the altered amino acid residues, and the TAL/PAL activity are summarized below.

[4] = Characterization of purified PDC enzymes (pHCA as substrate); format: biochemical; conditions: PDC enzyme
Procedure: The reaction was initiated by the addition of 1.0 μL of enzyme to a 1.0 mL solution containing 25 mM phosphate buffer, pH 6.0, and 0.2 mM pHCA in a plastic, UV transparent cuvette. The reaction was then followed for 5 minutes spectrophotometrically at 315 nm at room temperature, using a molar extinction coefficient of […] for pHCA disappearance. The specific activity was expressed as micromoles of pHCA degraded per minute per milligram of protein.
The characteristics of the PDC enzymes isolated from L. plantarum and B. subtilis were obtained using standard spectrometric and electrophoretic techniques and are listed in Table 5.

Molecule: O=C(O)C=Cc1ccc(O)cc1 [pHCA, para-Hydroxycinnamic acid]
- Ki [1]: 16 µM
- toxic to the cells (E. coli NST74): toxic

Molecule: C=Cc1ccc(O)cc1 [pHS, para-Hydroxystyrene]
- toxic to the cells (E. coli NST74): toxic
- concentration showing toxicity to the cells (E. coli NST74; as low as): ≥ 0.5 g/L

B1: Wild Type PAL: wild type phenylalanine-tyrosine ammonia lyase (pal/tal) enzyme from R. glutinis, SEQ ID NO:2 (protein, listed as Rhodotorula glutinis)
chain: MAPSLDSISHSFANGVASAKQAVNGASTNLAVAGSHLPTTQVTQVDIVEKMLAAPTDSTLELDGYSLNLGDVVSAARKGRPVRVKDSDEIRSKIDKSVEFLRSQLSMSVYGVTTGFGGSADTRTEDAISLQKALLEHQLCGVLPSSFDSFRLGRGLENSLPLEVVRGAMTIRVNSLTRGHSAVRLVVLEALTNFLNHGITPIVPLRGTISASGDLSPLSYIAAAISGHPDSKVHVVHEGKEKILYAREAMALFNLEPVVLGPKEGLGLVNGTAVSASMATLALHDAHMLSLLSQSLTAMTVEAMVGHAGSFHPFLHDVTRPHPTQIEVAGNIRKLLEGSRFAVHHEEEVKVKDDEGILRQDRYPLRTSPQWLGPLVSDLIHAHAVLTIEAGQSTTDNPLIDVENKTSHHGGNFQAAAVANTMEKTRLGLAQIGKLNFTQLTEMLNAGMNRGLPSCLAAEDPSLSYHCKGLDIAAAAYTSELGHLANPVTTHVQPAEMANQAVNSLALISARRTTESNDVLSLLLATHLYCVLQAIDLRAIEFEFKKQFGPAIVSLIDQHFGSAMTGSNLRDELVEKVNKTLAKRLEQTNSYDLVPRWHDAFSFAAGTVVEVLSSTSLSLAAVNAWKVAAAESAISLTRQVRETFWSAASTSSPALSYLSPRTQILYAFVREELGVKARRGDVFLGKQEVTIGSNVSKIYEAIKSGRINNVLLKMLA
- Vmax for PAL ([2]; previous kinetic studies): 5.5
- Vmax for TAL ([2]; previous kinetic studies): 0.76
- PAL/TAL ratio ([2]; wild type pal/tal gene in E. coli): 2.0
- TAL/PAL ratio [3]: 0.5

B2: RM120-4: mutant TAL enzyme, SEQ ID NO:16 (protein)
chain: MAPSLDSISHSFANGVASAKQAVNGASTNLAVAGSHLPTTQVTQVDIVEKMLAAPTDSTLELDGYSLNLGDVVSAARKGRPVRVKDSDEIRSKIDKSVEFLRSQLSMSVYGVTTGFGGSADTRTEDAISLQKALLEHQLCGVLPSSFDSFRLGRGLENSLPLEVVRGAMTIRVNSLTRGHXAVRLVVLEALTNFLNHGITPIVPLRGTISASGDLSPLSYIAAAISGHPDSKVHXVHEGKEKILYAREAMALFNLEPVVLGPKEGLGLVNGTAVSASMATLALHDAHMLSLLSQSLTAMTVEAMVGHAGSFHPFLHDVTRPHPTQIEVAGNIRKLLEGSRFAVHHEEEVKVKDDEGILRQDRYPLRTSPQWLGPLVSDLIHAHAVLTIEAGQSTTDNPLIDVENKTSHHGGNFQAAAVANTMEKTRLGLAQIGKLNFTQLTEMLNAGMNRGLPSCLAAEDPSLSYHCKGLDIAAAAYTSELGHLANPVTTHVQPAEMANQAVNSLALISARRTTESNDVLSLLLATHLYCVLQAIDLRAXEFEFKKQFGPAIVSLIDQHFGSAMTGSNLRDELVEKVNKTLAKRLEQTNSYDLVPRWHDAFSFAAGTVVEVLSSTSLSLAAVNAWKVAAAESAISLTRQVRETFWSAASTSSPALSYLSPRTQILYAFVREELGVKARRGDVFLGKQEVTIGSNVSKIYEAIKSGRINNVLLKMLA
modifications: Mutant from Rhodotorula glutinis
- TAL/PAL ratio [3]: 2.0

B3: RM120-7: mutant TAL enzyme, SEQ ID NO:17 (protein)
chain: MAPSLDSISHSFANGVASAKQAVNGASTNLAVAGSHLPTTQVTQVDIVEKMLAAPTDSTLELDGYSLNLGDVVSAARKGRPVRVKDSDEIRSKIDKSVEFLRSQLSMSVYGVTTGFGGSADTRTEDAISLQKALLEHQLCGVLPSSFDXFRLGRGLENSLPLEVVRGAMTIRVNSLTRGHSAVRLVVLEALTNFLNHGITPXVPLRGTISASGDLSPLSYIAAAISGHPDSKVHVVHEGKEKILYAREAMALFNLEPVVLGPKEGLGLVNGTAVSASMATLALHDAHMLSLLSQSLTAMTVEAMVGHAGSFHPFLHDVTRPHPTQIEVAGNIRKLLEGSRFAVHHEEEVKVKDDEGILRQDRYPLRTSPQWLGPLVSDLIHAHAVLTIEAGQSTTDNPLIDVENKTSHHGGNFQAAAVANTMEKTRLGLAQIGKLNFTQLTEMLNAGMNRGLPSCLAAEDPSLSYHCKGLDIAAAAYTSELGHLANPVTTHVQPAEMANQAVNSLALISARRTTESNDVLSLLLATHLYCVLQAIDLRAXEFEFKKQFGPAIVSLIDQHFGSAMTGSNLRDELVEKVNKTLAKRLEQTNSYDLVPRWHDAFSFAAGTVVEVLSSTSLSLAAVNAWKVAAAESAISLTRQVRETFWSAASTSSPALSYLSPRTQILYAFVREELGVKARRGDVFLGKQEVTIGSNVSKIYEAIKSGRINNVLLKMLA
modifications: Mutant from Rhodotorula glutinis
- TAL/PAL ratio [3]: 0.8

B4: RM492-1: mutant TAL enzyme, SEQ ID NO:18 (protein)
chain: MAPSLDSISHSFANGVASAKQAVNGASTNLAVAGSHLPTTQVTQVDIVEKMLAAPTDSTLELDGYSLNLGDVVSAARKGRPVRVKDSDEIRSKIDKSVEFLRSQLSMSVYGVTTGFGGSADTRTEDAISLQKALLEHQLCGVLPSSFDSFRLGRGLENSLPLEVVRGAMTIRVNSLTRGHSAVRLVVLEALTNFLNHGITPIVPLRGTISASGDLSPLSYIAAAISGHPDSKVHVVHEGKEKILYAREAMALFNLEPVVLGPKEGLGLVNGTAVSASMATLALHDAHMLSLLSQSLTAMTVEAMVGHAGSFHPFLHDVTRPHPTQIEVAGNIRKLLEGSRFAVHHEEEVKVKDDEGILRQDRYPLRTSPQWLGPLVSDLIHAHAVLTIEAGQSTTDNPLIDVENKTSHHGGNFQAAAVANTMEKTRLGLAQIGKLNFTQLTEMLNAGMNRGLPSCLAAEDPSLSYHCKGLDIAAAAYTSELGHLANPVTTHVQPAEMANQAGNSLALISARRTTESNDVLSLLLATHLYCVLQAIDLRATEFEFKKQFGPAIVSLIDQHFGSAMTGSNLRDELVEKVNKTLAKRLEQTNSYDLVPRWHDAFSFAAGTVVEVLSSTSLSLAAVNAWKVAAAESAISLTRQVRETFWSAASTSSPALSYLSPRTQILYAFVREELGVKARRGDVFLGKQEVTIGSNVSKIYEAIKSGRINNVLLKMLA
modifications: not fully specified
- TAL/PAL ratio [3]: 2.0

B5: RM120-1: mutant TAL enzyme, SEQ ID NO:14 (protein)
chain: MAPSLDSISHSFANGVASAKQAVNGASTNLAVAGSHLPTTQVTQVDIVEKMLAAPTDSTLELDGYSLNLGDVVSAARKGRPVRVKDSDEIRSKIDKSVEFLRSQLSMSVYGVTTGFGGSADTRTEXAISLQKALLEHXLCGVLPSSFDSFRLGRGLENSLPLEVVRGAMTIRVNSLTRGHSAVRLVVLEALTNFLNHGITPIVPLRGTISASGDLSPLSYIAAAISGHPDSKVHVVHEGKEKILYAREAMALFNLEPVVLGPKEGLGLVNGTAVSASMATLALHDAHMLSLLSQSLTAMTVEAMVGHAGSFHPFLHDVTRPHPTQIEVAGNIRKLLEGSRFAVHHEEEVKVKDDEGILRQDRYPLRTSPQWLGPLVSDLIHAHAVLTIEAGQSTTDNPLIDVENKTSHHGGNFQAAAVANTMEKTRLGLAQIGKLNFTQLTEMLNAGMNRGLPSCLAAEDPSLSYHCKGLDIAAAAYTSELGHLANPVTTHVQPAEMANQAVNSLALISARRTTESNDVLSLLLATHLYCVLQAIDLRAXEFEFKKQFGPAIVSLIDQHFGSAMTGSNLRDELVEKVNKTLAKRLEQTNSYDLVPRWHDAFSFAAGTVVEVLSSTSLSLAAVNAWKVAAAESAISLTRQVRETFWSAASTSSPALSYLSPRTQILYAFVREELGVKARRGDVFLGKQEVTIGSNVSKIYEAIKSGRINNVLLKMLA
modifications: Mutant from Rhodotorula glutinis
- TAL/PAL ratio [3]: 7.2

B6: L. plantarum: para-hydroxycinnamic acid decarboxylase (pdc1) from L. plantarum, SEQ ID NO:4, expressed in E. coli and purified (protein, listed as Lactobacillus plantarum)
chain: MTKTFKTLDDFLGTHFIYTYDNGWEYEWYAKNDHTVDYRIHGGMVAGRWVTDQKADIVMLTEGIYKISWTEPTGTDVALDFMPNEKKLHGTIFFPKWVEEHPEITVTYQNEHIDLMEQSREKYATYPKLVVPEFANITYMGEGQNNEDVISEAPYKEMPNDIRNGKYLIKTTIV
- Km [4]: 1.4 mM

B7: B. subtilis: para-hydroxycinnamic acid decarboxylase (pdc2) from B. subtilis, SEQ ID NO:6, expressed in E. coli and purified (protein, listed as Bacillus subtilis)
chain: MENFIGSHMIYTYENGWEYEIYIKNDHTIDYRIHSGMVAGRWVRDQEVNIVKLTEGVYKVSWTEPTGTDVSLNFMPNEKRMHGIIFFPKWVHEHPEITVCYQNDHIDLMKESREKYETYPKYVVPEFAEITFLKNEGVDNEEVISKAPYEGMTDDIRAGRL
- Km [4]: 1.3 mM
